Measurements reported in PMC9482650, “Quantitative fragmentomics allow affinity mapping of interactomes” (Nature Communications, 2022).

What was measured:
Assay in all cases: holdup assay
Set-up in all cases: key: below the threshold = too weak to quantify, mostly under pKd 3.1 to 4
Settings in all cases: plain residues with an end cap or a label only (N-terminal biotin on a linker: ado-ado)
PCLO, Q9Y6V0 = molecular target: T1, PCLO, Q9Y6V0
T1 sequence (Q9Y6V0 4491-4600, limits assumed, looked up): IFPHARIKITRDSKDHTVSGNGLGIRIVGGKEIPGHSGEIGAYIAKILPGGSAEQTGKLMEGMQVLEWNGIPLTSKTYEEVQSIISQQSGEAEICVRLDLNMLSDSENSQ

PDZRN3_1, Q9UPQ7 = molecular target: T2, PDZRN3_1, Q9UPQ7
T2 sequence (Q9UPQ7 244-349, limits assumed, looked up): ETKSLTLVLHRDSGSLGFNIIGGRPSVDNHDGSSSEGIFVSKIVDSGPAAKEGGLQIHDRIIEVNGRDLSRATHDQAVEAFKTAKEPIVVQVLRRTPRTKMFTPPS

FRMPD1, Q5SYB0 = molecular target: T3, FRMPD1, Q5SYB0
T3 sequence (Q5SYB0 52-145, limits assumed, looked up): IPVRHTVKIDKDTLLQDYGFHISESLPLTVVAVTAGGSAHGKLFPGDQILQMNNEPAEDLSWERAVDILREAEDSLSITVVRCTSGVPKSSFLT

HTRA2, O43464 = molecular target: HTRA2, O43464
RHPN1, Q8TCX5 = molecular target: T4, RHPN1, Q8TCX5
T4 sequence (Q8TCX5 508-602, limits assumed, looked up): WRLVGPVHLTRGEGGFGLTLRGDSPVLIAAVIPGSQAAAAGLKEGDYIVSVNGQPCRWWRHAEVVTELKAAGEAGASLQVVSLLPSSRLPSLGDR

IL16_1, Q14005 = molecular target: IL16_1, Q14005
TX1BP3, O14907 = molecular target: T5, TX1BP3, O14907
T5 sequence (O14907 10-122, limits assumed, looked up): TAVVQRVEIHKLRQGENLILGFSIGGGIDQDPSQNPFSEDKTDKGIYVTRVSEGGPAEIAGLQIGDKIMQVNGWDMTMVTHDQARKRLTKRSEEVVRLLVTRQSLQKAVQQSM

SNX27, Q96L92 = molecular target: SNX27, Q96L92
GRIP2_3, Q9C0E4 = molecular target: GRIP2_3, Q9C0E4
SNTG2, Q9NY99 = molecular target: T6, SNTG2, Q9NY99
T6 sequence (Q9NY99 68-166, limits assumed, looked up): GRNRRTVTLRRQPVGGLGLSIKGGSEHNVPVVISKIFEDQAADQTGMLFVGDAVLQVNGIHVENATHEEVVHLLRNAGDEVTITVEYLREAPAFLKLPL

LIMK2, P53671 = molecular target: LIMK2, P53671
MPP2, Q14168 = molecular target: T7, MPP2, Q14168
T7 sequence (Q14168 180-250, limits assumed, looked up): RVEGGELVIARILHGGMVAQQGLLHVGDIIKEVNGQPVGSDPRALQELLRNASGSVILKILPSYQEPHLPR

Inadl_4, Q8NI35 = molecular target: Inadl_4, Q8NI35
Inadl_8, Q8NI35 = molecular target: Inadl_8, Q8NI35
IL16_4, Q14005 = molecular target: IL16_4, Q14005
SNTA1, Q13424 = molecular target: T8, SNTA1, Q13424
T8 sequence (Q13424 82-180, limits assumed, looked up): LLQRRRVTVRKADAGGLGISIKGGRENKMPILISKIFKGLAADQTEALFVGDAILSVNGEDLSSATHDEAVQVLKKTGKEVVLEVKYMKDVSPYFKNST

DLG4_3, P78352 = molecular target: DLG4_3, P78352
PDLIM1, O00151 = molecular target: PDLIM1, O00151
LNX2_2, Q8N448 = molecular target: T9, LNX2_2, Q8N448
T9 sequence (Q8N448 334-432, limits assumed, looked up): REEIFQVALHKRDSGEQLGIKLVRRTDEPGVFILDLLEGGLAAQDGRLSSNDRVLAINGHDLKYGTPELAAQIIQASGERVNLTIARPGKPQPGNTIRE

PARD3_3, Q8TEW0 = molecular target: PARD3_3, Q8TEW0
IL16_3, Q14005 = molecular target: IL16_3, Q14005
DLG4_2, P78352 = molecular target: DLG4_2, P78352
FRMPD2_1, Q68DX3 = molecular target: FRMPD2_1, Q68DX3
NHERF4_1, Q86UT5-2 = molecular target: NHERF4_1, Q86UT5-2
DLG3_1, Q92796 = molecular target: T10, DLG3_1, Q92796
T10 sequence (Q92796 125-227, limits assumed, looked up): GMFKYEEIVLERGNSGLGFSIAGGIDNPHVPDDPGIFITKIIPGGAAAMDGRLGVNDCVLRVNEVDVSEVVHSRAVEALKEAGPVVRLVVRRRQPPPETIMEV

HTRA1, Q92743 = molecular target: HTRA1, Q92743
LIN7B, Q9HAP6 = molecular target: T11, LIN7B, Q9HAP6
T11 sequence (Q9HAP6 88-185, limits assumed, looked up): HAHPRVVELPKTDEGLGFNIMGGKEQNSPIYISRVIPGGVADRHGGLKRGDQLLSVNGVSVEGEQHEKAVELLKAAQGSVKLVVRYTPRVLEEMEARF

Inadl_8, Q8NI35, sequence (Q8NI35 1425-1530): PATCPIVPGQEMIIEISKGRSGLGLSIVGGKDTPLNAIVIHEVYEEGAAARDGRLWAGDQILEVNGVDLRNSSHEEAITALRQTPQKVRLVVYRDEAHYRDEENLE
HTRA1, Q92743, sequence (Q92743 360-477): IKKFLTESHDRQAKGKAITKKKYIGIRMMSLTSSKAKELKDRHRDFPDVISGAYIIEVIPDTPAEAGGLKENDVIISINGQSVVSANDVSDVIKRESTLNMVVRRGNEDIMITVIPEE
IL16_1, Q14005, sequence (Q14005 210-306): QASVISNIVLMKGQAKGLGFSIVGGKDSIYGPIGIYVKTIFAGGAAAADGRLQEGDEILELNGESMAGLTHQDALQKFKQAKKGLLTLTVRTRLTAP
IL16_4, Q14005, sequence (Q14005 1229-1329): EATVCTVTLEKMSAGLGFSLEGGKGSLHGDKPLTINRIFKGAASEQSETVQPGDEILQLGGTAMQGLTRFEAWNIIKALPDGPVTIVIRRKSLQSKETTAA
DLG4_3, P78352, sequence (P78352 306-403): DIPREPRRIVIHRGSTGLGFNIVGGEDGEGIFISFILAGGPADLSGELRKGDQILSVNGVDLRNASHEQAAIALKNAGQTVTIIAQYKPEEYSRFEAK
Inadl_4, Q8NI35, sequence (Q8NI35 547-651): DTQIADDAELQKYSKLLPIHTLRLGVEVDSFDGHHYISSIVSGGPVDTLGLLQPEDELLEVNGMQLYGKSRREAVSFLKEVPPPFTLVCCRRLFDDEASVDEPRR
DLG4_2, P78352, sequence (P78352 155-259): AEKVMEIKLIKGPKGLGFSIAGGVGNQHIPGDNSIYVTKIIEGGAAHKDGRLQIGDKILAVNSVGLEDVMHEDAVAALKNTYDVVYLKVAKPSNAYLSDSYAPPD
HTRA2, O43464, sequence (O43464 355-458): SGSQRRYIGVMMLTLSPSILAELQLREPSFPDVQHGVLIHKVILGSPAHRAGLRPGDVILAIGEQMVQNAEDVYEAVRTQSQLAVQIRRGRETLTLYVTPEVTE
GRIP2_3, Q9C0E4, sequence (Q9C0E4 238-339): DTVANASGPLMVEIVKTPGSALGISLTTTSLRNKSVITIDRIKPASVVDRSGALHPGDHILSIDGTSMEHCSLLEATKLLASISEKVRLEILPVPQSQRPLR
IL16_3, Q14005, sequence (Q14005 1107-1207): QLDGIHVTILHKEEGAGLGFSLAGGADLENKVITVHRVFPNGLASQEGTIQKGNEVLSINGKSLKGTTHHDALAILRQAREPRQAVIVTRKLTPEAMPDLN
LIMK2, P53671, sequence (P53671 143-248): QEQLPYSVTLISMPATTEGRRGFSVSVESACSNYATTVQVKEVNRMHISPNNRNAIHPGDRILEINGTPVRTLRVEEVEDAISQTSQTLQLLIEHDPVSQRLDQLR
PDLIM1, O00151, sequence (O00151 1-87): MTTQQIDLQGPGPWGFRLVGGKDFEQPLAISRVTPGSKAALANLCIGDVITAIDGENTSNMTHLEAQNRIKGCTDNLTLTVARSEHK
FRMPD2_1, Q68DX3, sequence (Q68DX3 770-861): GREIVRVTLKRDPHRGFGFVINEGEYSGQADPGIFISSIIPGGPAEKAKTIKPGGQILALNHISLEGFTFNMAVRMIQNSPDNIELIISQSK
PARD3_3, Q8TEW0, sequence (Q8TEW0 582-685): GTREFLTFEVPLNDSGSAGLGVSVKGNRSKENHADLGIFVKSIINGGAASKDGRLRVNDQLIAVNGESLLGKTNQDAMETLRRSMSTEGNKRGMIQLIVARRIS
NHERF4_1, Q86UT5-2, sequence (Q86UT5 other isoform, or with tags, fused parts or gaps): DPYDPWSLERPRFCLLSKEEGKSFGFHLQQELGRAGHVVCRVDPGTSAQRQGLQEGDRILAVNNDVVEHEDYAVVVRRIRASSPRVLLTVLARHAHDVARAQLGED

Binder | pKd (PCLO, Q9Y6V0) | pKd (PDZRN3_1, Q9UPQ7) | pKd (FRMPD1, Q5SYB0) | pKd (HTRA2, O43464) | pKd (RHPN1, Q8TCX5) | pKd (IL16_1, Q14005) | pKd (TX1BP3, O14907) | pKd (SNX27, Q96L92) | pKd (GRIP2_3, Q9C0E4) | pKd (SNTG2, Q9NY99) | pKd (LIMK2, P53671) | pKd (MPP2, Q14168) | pKd (Inadl_4, Q8NI35) | pKd (Inadl_8, Q8NI35) | pKd (IL16_4, Q14005) | pKd (SNTA1, Q13424) | pKd (DLG4_3, P78352) | pKd (PDLIM1, O00151) | pKd (LNX2_2, Q8N448) | pKd (PARD3_3, Q8TEW0) | other results
EYRKDNKVAA [LSM14A, Q8ND56;Q8ND56-2] | below the threshold | below the threshold | below the threshold | below the threshold | below the threshold | below the threshold | below the threshold | below the threshold | below the threshold | below the threshold | below the threshold | below the threshold | below the threshold | below the threshold | below the threshold | below the threshold | below the threshold | below the threshold | below the threshold | below the threshold | 
GDHLDRRVVL [VAC14, Q08AM6] | below the threshold | below the threshold | below the threshold | 3.48 | below the threshold | below the threshold | 3.71 | below the threshold | below the threshold | below the threshold | below the threshold | below the threshold | below the threshold | below the threshold | below the threshold | below the threshold | below the threshold | below the threshold | 3.48 | 3.48 | pKd (IL16_3, Q14005): 3.58; pKd (DLG4_2, P78352): below the threshold; pKd (FRMPD2_1, Q68DX3): 3.62; pKd (NHERF4_1, Q86UT5-2): 4.07; pKd (DLG3_1, Q92796): below the threshold; pKd (HTRA1, Q92743): 4.25; pKd (LIN7B, Q9HAP6): below the threshold
LRYARPADAL [PPP1R3G, B7ZBB8] | below the threshold | below the threshold | below the threshold | below the threshold | below the threshold | below the threshold | below the threshold | 3.49 | below the threshold | below the threshold | below the threshold | below the threshold | below the threshold | below the threshold | below the threshold | below the threshold | below the threshold | below the threshold | below the threshold | below the threshold | pKd (IL16_3, Q14005): below the threshold; pKd (DLG4_2, P78352): below the threshold; pKd (FRMPD2_1, Q68DX3): below the threshold; pKd (NHERF4_1, Q86UT5-2): 4.29; pKd (DLG3_1, Q92796): below the threshold; pKd (HTRA1, Q92743): 3.67; pKd (LIN7B, Q9HAP6): below the threshold
KSTTRSSSSC [NDE1, Q9NXR1;Q9NXR1-2] | below the threshold | below the threshold | below the threshold | below the threshold | below the threshold | below the threshold | 3.93 | below the threshold | below the threshold | below the threshold | below the threshold | below the threshold | below the threshold | 4.18 | below the threshold | below the threshold | below the threshold | below the threshold | below the threshold | below the threshold | pKd (IL16_3, Q14005): below the threshold; pKd (DLG4_2, P78352): below the threshold; pKd (FRMPD2_1, Q68DX3): below the threshold; pKd (DLG3_1, Q92796): below the threshold; pKd (HTRA1, Q92743): below the threshold
